Test results: US20240083974A1 (ETH Z RICH, published 2024)
Ends that are not written are not given here.

Target: T1, artificial transmembrane protein with eYFP (enhanced yellow fluorescent protein) as the receptor structure (Aequorea victoria (Water jellyfish) …, UniProt P42212 2-238 = GFP)
T1 construct: Control construct in living cells; not shown: Three are signal peptide-SNAPf-PdgfrTM-Li
Test: label-free diffraction signal (focal molography) from living cells on a nanopatterned waveguide after injection of the peptide

B1: Grb2-targeting peptide (peptide)
peptide: KKWKMRRNPFWIKIQRCCGIRVVDNSPPPPLPPRRRRSAPSPTRV-NH2
modifications: cysteine pairing not given here
notes: The hyphen between the two Cys may mean two peptides joined by a disulfide; also called P6; protein specifically targeting Grb2
binding result: no binding
